Source: US11472877 (Alector, dated 2022)

T1: human TREM2 on BWZ cells (human, UniProt Q9NZC2 19-230)
T1 construct: whole, on cells; not tied to the cell line; also called BWZ Human TREM2
T1 sequence (looked up): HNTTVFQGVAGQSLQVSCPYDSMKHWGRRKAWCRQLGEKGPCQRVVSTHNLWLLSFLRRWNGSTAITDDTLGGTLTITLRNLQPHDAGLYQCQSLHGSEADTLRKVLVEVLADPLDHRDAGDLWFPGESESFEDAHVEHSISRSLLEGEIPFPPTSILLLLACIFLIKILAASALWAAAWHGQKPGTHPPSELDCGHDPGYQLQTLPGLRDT

T2: mouse TREM2 on BWZ cells (mouse, UniProt Q99NH8 19-227)
T2 construct: whole, on cells; also called BWZ Mouse TREM2
T2 sequence (looked up): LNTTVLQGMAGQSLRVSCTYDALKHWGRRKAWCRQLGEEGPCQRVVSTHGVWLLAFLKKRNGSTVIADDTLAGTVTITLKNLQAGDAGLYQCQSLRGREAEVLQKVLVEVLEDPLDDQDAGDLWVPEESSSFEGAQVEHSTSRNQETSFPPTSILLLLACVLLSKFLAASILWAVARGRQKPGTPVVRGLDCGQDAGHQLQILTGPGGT


What was measured:
human TREM2 on BWZ cells = target: T1, human TREM2 on BWZ cells; test: FACS, BWZ cells
mouse TREM2 on BWZ cells = target: T2, mouse TREM2 on BWZ cells; test: FACS, BWZ cells

Row | binding result (human TREM2 on BWZ cells) | binding result (mouse TREM2 on BWZ cells) | Binder
1 | no binding | no binding | T1-67 (antibody, IgG1, V domains shown, huIgG1; also called TI-67; ADI-19143) VH: QVQLVQSGAEVKKPGASVKVSCKASGYTFTSYGIHWVRQAPGQGLEWMGWISAYNGNTNYAQKLQGRVTMTTDTSTSTAYMELRSLRSDDTAVYYCARGRPSSSWGNWFDPWGQGTTVTVSS VL: EIVLTQSPGTLSLSPGERATLSCRASQSVSSSFLAWYQQKPGQAPRLLIYGASSRATGIPDRFSGSGSGTDFTLTISRLEPEDFAVYYCQQAVSLPWTFGGGTKVEIK
2 | no binding | no binding | T1-55 (antibody, IgG1, V domains shown, huIgG1; also called TI-55; ADI-19130) VH: QVQLVQSGAEVKKPGASVKVSCKASGYTFTSYYMHWVRQAPGQGLEWMGVINPSGGSTSYAQKFQGRVTMTRDTSTSTVYMELSSLRSEDTAVYYCARGADYYAGFDYWGQGTLVTVSS VL: not shown
3 | no binding | no binding | T1-71 (antibody, IgG1, V domains shown, huIgG1; also called TI-71; ADI-19147) VH: EVQLVESGGGLVQPGRSLRLSCAASGFTFGDYAMHWVRQAPGKGLEWVSGISWNSGSIGYADSVKGRFTISRDNAKNSLYLQMNSLRAEDTALYYCAKGPRRTSHLDIWGQGTMVTVSS VL: DIQMTQSPSSVSASVGDRVTITCRASQGIDSWLAWYQQKPGKAPKLLIYAASSLQSGVPSRFSGSGSGTDFTLTISSLQPEDFATYYCQQATSLPLTFGGGTKVEIK
4 | no binding | no binding | T1-72 (antibody, IgG1, V domains shown, huIgG1; also called TI-72; ADI-19148) VH: EVQLVESGGGLVQPGRSLRLSCAASGFTFDDYAMHWVRQAPGKGLEWVSGISWNSGDIGYADSVKGRFTISRDNAKNSLYLQMNSLRAEDTALYYCAKGPRMTHSYFDLWGRGTLVTVSS VL: not shown
5 | no binding | no binding | T1-70 (antibody, IgG1, V domains shown, huIgG1; also called TI-70; ADI-19146) VH: QVQLVQSGAEVKKPGASVKVSCKASGYTFTSYGIHWVRQAPGQGLEWMGWISAYNGNTNYAQKLQGRVTMTTDTSTSTAYMELRSLRSDDTAVYYCARAGTIYGRLDLWGRGTLVTVSS VL: DIQLTQSPSSVSASVGDRVTITCRASQDISSWLAWYQQKPGKAPKLLIYAASSLQSGVPSRFSGSGSGTDFTLTISSLQPEDFATYYCQQAVSHPLTFGGGTKVEIK
6 | no binding | no binding | T1-69 (antibody, IgG1, V domains shown, huIgG1; also called TI-69; ADI-19145) VH: QVQLVQSGAEVKKPGASVKVSCKASGYTFTSYGISWVRQAPGQGLEWMGWISAYNGNTNYAQKLQGRVTMTTDTSTSTAYMELRSLRSDDTAVYYCARGAGMYDGSPLGMDVWGQGTTVTVSS VL: DIQMTQSPSSVSASVGDRVTITCRASQGISSWLAWYQQKPGKAPKLLIYAASNLQSGVPSRFSGSGSGTDFTLTISSLQPEDFATYYCQQATAHPPTFGGGTKVEIK
7 | no binding | no binding | T1-68 (antibody, IgG1, V domains shown, huIgG1; also called TI-68; ADI-19144) VH: EVQLVQSGAEVKKPGESLKISCKGSGYSFTTYWIGWVRQMPGKGLEWMGIIYPGDSDTRYSPSFQGQVTISADKSISTAYLQWSSLKASDTAMYYCARGSPWDGRLFDIWGQGTMVTVSS VL: EIVLTQSPATLSLSPGERATLSCRASQSVSSYLAWYQQKPGQAPRLLIYDASNRATGIPARFSGSGSGTDFTLTISSLEPEDFAVYYCQQFDNLPYTFGGGTKVEIK

Second part, the binder before the results:

Row | Binder | binding result (human TREM2 on BWZ cells) | binding result (mouse TREM2 on BWZ cells)
8 | T1-63 (antibody, IgG1, V domains shown, huIgG1; also called TI-63; ADI-19139) VH: QVQLQESGPGLVKPSETLSLTCAVSGYSISSGYYWGWIRQPPGKGLEWIGSIYHSGNTYYNPSLKSRVTISVDTSKNQFSLKLSSVTAADTAVYYCARELYAYSSPMFYGMDVWGRGTTVTVSS VL: DIQMTQSPSSLSASVGDRVTITCRASQSISRYLNWYQQKPGKAPKLLIYAASSLQSGVPSRFSGSGSGTDFTLTISSLQPEDFATYYCQQLYHAPPITFGGGTKVEIK | no binding | no binding
9 | T1-61 (antibody, IgG1, V domains shown, huIgG1; also called TI-61; ADI-19137) VH: QVQLQESGPGLVKPSETLSLTCAVSGYSISSGYYWGWIRQPPGKGLEWIGSIYHSGSTYYNPSLKSRVTISVDTSKNQFSLKLSSVTAADTAVYYCARHDDYLSSFDPWGQGTLVTVSS VL: not shown | no binding | no binding
10 | T1-59 (antibody, IgG1, V domains shown, huIgG1; also called TI-59; ADI-19135) VH: QVQLQESGPGLVKPSETLSLTCAVSGYSISSGYYWAWIRQPPGKGLEWIGSIYHSGSTYYNPSLKSRVTISVDTSKNQFSLKLSSVTAADTAVYYCARDLGGYEGAFDPWGQGTLVTVSS VL: not shown | no binding | no binding
11 | T1-56 (antibody, IgG1, V domains shown, huIgG1; also called TI-56; ADI-19131) VH: EVQLVESGGGLVQPGRSLRLSCAASGFTFDDYAMHWVRQAPGKGLEWVSGISWNSGSIGYADSVKGRFTISRDNAKNSLYLQMNSLRAEDTALYYCAKGPRLLGYFDLWGRGTLVTVSS VL: not shown | no binding | no binding
12 | T1-74 (antibody, IgG1, V domains shown, huIgG1; also called TI-74; ADI-19151) VH: EVQLVESGGGLVQPGRSLRLSCAASGFTFDDYAMHWVRQAPGKGLEWVSGISWNSGSIGYADSVKGRFTISRDNAKNSLYLQMNSLRAEDTALYYCAKGPRTRGYFDLWGRGTLVTVSS VL: DIQMTQSPSTLSASVGDRVTITCRASQSISSWLAWYQQKPGKAPKLLIYKASSLESGVPSRFSGSGSGTEFTLTISSLQPDDFATYYCQQHSLLSITFGGGTKVEIK | no binding | no binding
13 | T1-73 (antibody, IgG1, V domains shown, huIgG1; also called TI-73; ADI-19149) VH: EVQLVESGGGLVQPGRSLRLSCAASGFTFDDYAMHWVRQAPGKGLEWVSGISWNSGSIGYADSVKGRFTISRDNAKNSLYLQMNSLRAEDTALYYCAKAPRMYGYFDLWGRGTSVTVSS VL: DIQMTQSPSTLSASVGDRVTITCRASQSISSWLAWYQQKPGKAPKLLIYKASSLESGVPSRFSGSGSGTEFTLTISSLQPDDFATYYCQQYRTYPTFGGGTKVEIK | no binding | no binding
14 | T1-65 (antibody, IgG1, V domains shown, huIgG1; also called TI-65; ADI-19141) VH: QLQLQESGPGLVKPSETLSLTCTVSGGSISSSDYYWGWIRQPPGKGLEWIGSIYYSGSTYYNPSLKSRVTISVDTSKNQFSLKLSSVTAADTAVYYCARDSGQYTGSLDVWGQGTMVTVSS VL: not shown | no binding | no binding
15 | T1-64 (antibody, IgG1, V domains shown, huIgG1; also called TI-64; ADI-19140) VH: QLQLQESGPGLVKPSETLSLTCTVSGGSISSSSYYWGWIRQPPGKGLEWIGSISYSGSTYYNPSLKSRVTISVDTSKNQFSLKLSSVTAADTAVYYCARYYSPYGMDVWGQGTTVTVSS VL: not shown | no binding | no binding
16 | T1-57 (antibody, IgG1, V domains shown, huIgG1; also called TI-57; ADI-19132) VH: EVQLVESGGGLVQPGRSLRLSCAASGFTFDDYAMHWVRQAPGKGLEWVSGITWNSGSIGYADSVKGRFTISRDNAKNSLYLQMNSLRAEDTALYYCAKGPRYSKPYFDYWGQGTLVTVSS VL: DIQMTQSPSSVSASVGDRVTITCRASQGIDSWLAWYQQKPGKAPKLLIYAASSLQSGVPSRFSGSGSGTDFTLTISSLQPEDFATYYCQQRAVFPPTFGGGTKVEIK | no binding | no binding
